{"source": "patent US5981167A", "about": "“Surface plasmon resonance based enzymatic assay” (priority 1998, dated 1999)", "molecules": {"B1": {"name": "HisHIV183: HCV NS3 protease without solubilizing motif, refolded from E. coli inclusion body pellet (protein)", "chain": "APITAYAQQTRGLLGCIITSLTGRDKNQVEGEVQIVSTATQTFLATCINGVCWTVYHGAGTRTIASPKGPVIQTYTNVDQDLVGWPAPQGSRSLTPCTCGSSDLYLVTRHADVIPVRRRGDSRGSLLSPRPISYLKGSSGGPLLCPTGHAVGLFRAAVCTRGVAKAVDFIPVENLETTMRSPV"}}, "key": {"[1]": {"tested_on": "HCV protease His-NS3(183)Δ4AHT", "settings": "concentrated enzyme"}, "[2]": {"molecular_target": "maturation site peptide […] (CMV)"}, "[3]": {"tested_on": "in vitro-translated 5A/5B substrate", "test": "Trans-cleavage assay in the presence of 4A peptide", "type": "biochemical, HCV", "settings": "refolded protein", "description": "Precipitation of protein occurred at the last step of dialysis, and the soluble protein was clarified by centrifugation. The overall protein recovery was about 0.10%."}}, "data": [{"molecule": "Biotin-DTEDVVAC SMSYTWTGK-pY", "values": [{"measurement": "time to 50% substrate cleavage", "setting": "[1]", "result": "≤ 1", "unit": "h"}]}, {"molecule": "CMV protease, refolded wild type (from UniProt P16753) (enzyme)", "values": [{"measurement": "Km", "setting": "[2]", "result": 1020, "unit": "µM"}]}, {"molecule": "B1", "values": [{"measurement": "activity in trans-cleavage assay", "setting": "[3]", "result": "active"}]}]}
